# B1: amivantamab (bispecific antibody, human IgG1, kappa)
# heavy 1: not shown
# light 1: not shown
# heavy 2: not shown
# light 2: DIQMTQSPSSVSASVGDRVTITCRASQGISNWLAWFQHKPGKAPKLLIYAASSLLSGVPSRFSGSGSGTDFTLTISSLQPEDFATYYCQQANSFPITFGQGTRLEIKRTVAAPSVFIFPPSDEQLKSGTASVVCLLNNFYPREAKVQWKVDNALQSGNSQESVTEQDSKDSTYSLSSTLTLSKADYEKHKVYACEVTHQGLSSPVTKSFNRGEC
# notes: The samples tested were high concentration (160 mg/mL) formulations, fresh or stored or stressed; also called JNJ-61186372; bispecific EGFR-cMet antibody
# What was measured:
# [1] = target: T1, recombinant human EGFR/ErbB1/HER1 with C-terminal His tag, Cy5-labeled (human, UniProt P00533 25-645, Cy5 label (reacted with Cy5 Mono NHS Ester; sites not stated)); assay: competitive TR-FRET (Eu-amivantamab/Cy5-EGFR), EC50 ratio vs Reference Material; Ex. 2 Formulation 3 (acetate), T0, 40 C table
# T1 construct: Commercial protein; also called Cy5-EGFR; Cy5-labeled EGFR antigen; not shown: C-terminal His tag
# Text: (§1) In this procedure, varying concentrations of unlabeled bispecific EGFR-cMet antibody sample compete with donor fluorophore (Europium (Eu) chelate) labeled bispecific EGFR-cMet antibody for binding to an acceptor fluorophore (Cy5)-labeled EGFR antigen. Excitation of the donor fluorophore results in a transfer of energy to the bound acceptor fluorophore (FRET process). The resultant FRET is detected by emission of light at 665 nm using a microplate reader capable of measuring time-resolved fluorescence. Sample dose response curves are compared to the RM.
# (§2) EGFR Binding Materials and Methods. Certified commercial EGFR, a recombinant human EGFR/ErbB1/HER1 with C-terminal His tag is reacted with certified commercial Cy5 Mono NHS Ester to produce Cy5-labeled EGFR. Validated bispecific EGFR-cMet antibody is reacted with certified commercial Europium (Eu) chelate to produce Eu-labeled bispecific EGFR-cMet antibody. […] Fluorescence is then measured by spectrophotometry at 665 nm, plotted against antibody concentration and analyzed by a four-parameter logistic model. The antibody concentration required to obtain half of the maximum fluorescence response (EC50) is determined for RM, assay control and samples. The potencies of assay control and samples are calculated based on the ratio of the sample (or control) and RM EC50 values and reported as a percentage activity relative to the RM.
# [2] = target: T2, recombinant cMet/HGFR with c-terminal His-tag, Cy5-labeled (UniProt P08581 25-932, limits assumed, Cy5 label (reacted with Cy5 Mono NHS Ester; sites not stated)); assay: competitive TR-FRET (Eu-amivantamab/Cy5-c-MET), EC50 ratio vs Reference Material; Ex. 2 Formulation 3 (acetate), 1 month at 40 C
# T2 construct: Commercial protein; also called Cy5-c-MET; Cy5-labeled c-MET antigen; not shown: C-terminal His-tag
# Text: as §1, with “(Cy5)-labeled c-MET” for “(Cy5)-labeled EGFR”, “the Reference Material (RM).” for “the RM.”
# as §2, with “c-MET Binding” for “EGFR Binding”, “commercial cMet,” for “commercial EGFR,”, “recombinant cMet/HGFR” for “recombinant human EGFR/ErbB1/HER1”, “with c-terminal His-tag” for “with C-terminal His tag”, “Cy5-labeled c-MET.” for “Cy5-labeled EGFR.”, “produce Eu labeled” for “produce Eu-labeled”
# [3] = target: T1, recombinant human EGFR/ErbB1/HER1 with …; assay: competitive TR-FRET (Eu-amivantamab/Cy5-EGFR), EC50 ratio vs Reference Material; Ex. 2 Formulation 3 (acetate), T0, 5 C table
# Text: as §1, §2
# [4] = target: T2, recombinant cMet/HGFR with c-terminal …; assay: competitive TR-FRET (Eu-amivantamab/Cy5-c-MET), EC50 ratio vs Reference Material; Ex. 12 drug product with rHuPH20, 0 months, 5 C table
# Text: as §1, with “(Cy5)-labeled c-MET” for “(Cy5)-labeled EGFR”, “the Reference Material (RM).” for “the RM.”
# as §2, with “c-MET Binding” for “EGFR Binding”, “commercial cMet,” for “commercial EGFR,”, “recombinant cMet/HGFR” for “recombinant human EGFR/ErbB1/HER1”, “with c-terminal His-tag” for “with C-terminal His tag”, “Cy5-labeled c-MET.” for “Cy5-labeled EGFR.”, “produce Eu labeled” for “produce Eu-labeled”
# [5] = target: T1, recombinant human EGFR/ErbB1/HER1 with …; assay: competitive TR-FRET (Eu-amivantamab/Cy5-EGFR), EC50 ratio vs Reference Material; Ex. 2 Formulation 1 (10 mM histidine), 1 month at 40 C
# Text: as §1, §2
# [6] = target: T2, recombinant cMet/HGFR with c-terminal …; assay: competitive TR-FRET (Eu-amivantamab/Cy5-c-MET), EC50 ratio vs Reference Material; Ex. 2 Formulation 2 (50 mM histidine), 3 months at 5 C
# Text: as §1, with “(Cy5)-labeled c-MET” for “(Cy5)-labeled EGFR”, “the Reference Material (RM).” for “the RM.”
# as §2, with “c-MET Binding” for “EGFR Binding”, “commercial cMet,” for “commercial EGFR,”, “recombinant cMet/HGFR” for “recombinant human EGFR/ErbB1/HER1”, “with c-terminal His-tag” for “with C-terminal His tag”, “Cy5-labeled c-MET.” for “Cy5-labeled EGFR.”, “produce Eu labeled” for “produce Eu-labeled”
# [7] = target: T2, recombinant cMet/HGFR with c-terminal …; assay: competitive TR-FRET (Eu-amivantamab/Cy5-c-MET), EC50 ratio vs Reference Material; Ex. 12 drug product with rHuPH20, 6 months at 5 C
# Text: as §1, with “(Cy5)-labeled c-MET” for “(Cy5)-labeled EGFR”, “the Reference Material (RM).” for “the RM.”
# as §2, with “c-MET Binding” for “EGFR Binding”, “commercial cMet,” for “commercial EGFR,”, “recombinant cMet/HGFR” for “recombinant human EGFR/ErbB1/HER1”, “with c-terminal His-tag” for “with C-terminal His tag”, “Cy5-labeled c-MET.” for “Cy5-labeled EGFR.”, “produce Eu labeled” for “produce Eu-labeled”
# [8] = target: T1, recombinant human EGFR/ErbB1/HER1 with …; assay: competitive TR-FRET (Eu-amivantamab/Cy5-EGFR), EC50 ratio vs Reference Material; Ex. 12 drug product with rHuPH20, 12 months at 5 C
# Text: as §1, §2
binder,measurement,setting,value
B1,EGFR Binding % activity relative to RM,[1],103%
same,cMET Binding % activity relative to RM,[2],100%
same,EGFR Binding % activity relative to RM,[3],103%
same,cMET Binding activity relative to Reference Material (%),[4],91%
same,EGFR Binding % activity relative to RM,[5],69%
same,cMET Binding % activity relative to RM,[6],98%
same,cMET Binding activity relative to Reference Material (%),[7],102%
same,EGFR Binding activity relative to Reference Material (%),[8],94%

# From patent US20240034813A1 (Janssen / Centocor, published 2024)
